Measured values as given in article PMC11109945.
Ends that are not written are not given here. * marks the point of attachment. Biotin = O=C1N[C@H]2[C@H](CS[C@H]2CCCCC(=O)*)N1

Biological target: T1, GST-WSB2 WDR (human)
T1 sequence (Q9NYS7 whole entry, looked up): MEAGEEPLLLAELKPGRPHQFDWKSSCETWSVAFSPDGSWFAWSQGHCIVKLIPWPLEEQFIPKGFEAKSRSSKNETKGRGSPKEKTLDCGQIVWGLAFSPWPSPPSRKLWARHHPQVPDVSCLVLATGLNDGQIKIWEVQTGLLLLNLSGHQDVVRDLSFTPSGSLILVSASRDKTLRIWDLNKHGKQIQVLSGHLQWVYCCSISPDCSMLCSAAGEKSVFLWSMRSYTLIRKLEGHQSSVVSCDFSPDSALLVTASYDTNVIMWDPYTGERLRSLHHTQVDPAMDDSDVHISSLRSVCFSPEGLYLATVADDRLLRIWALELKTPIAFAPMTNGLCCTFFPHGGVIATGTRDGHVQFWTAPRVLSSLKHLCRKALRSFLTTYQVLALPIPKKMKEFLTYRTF
Experiment: pull-down + far-Western, overlay or dot blot; about 3 ug glutathione beads-bound GST-WSB2 WDR with 1.8 nmol biotin-labeled RelA peptide in 500 ul GST binding buffer, 4°C, 1 h; washed, eluted with 20 mM GSH, denatured, spotted on nitrocellulose; anti-biotin and anti-GST

fold affinity against the unmethylated peptide: 3 to 4 fold
Binder: Biotin-TFKSIMK(Me)K(Me)SPFSG [biotin-labeled K314/315 monomethylated RelA peptide (a.a. 308-320)]
